Assay results taken from PMC8034648, “Oligomeric complexes formed by Redβ single strand annealing protein in its different DNA bound states”.
Values joined by “and” are separate entries in the source; they are usually repeats but may differ in a detail not shown here. Identical values can stand only once.

How the values were obtained:
[1] = molecular target: Redβ single strand annealing protein from bacteriophage λ (bacteriophage λ) (UniProt P03698); assay: SEC-MALS; Redβ alone, no DNA; Superose 6 increase 3.2/300, PBS, 0.04 ml/min; loaded at 34, 67 and 101 μM, eluted at 6.0, 13.5 and 18.5 μM; weight-average mass; monomers to oligomer
[2] = molecular target: Redβ single strand annealing protein from bacteriophage λ (bacteriophage λ) (UniProt P03698); assay: native MS; Redβ alone, no DNA, at 1 μM or greater (up to 30 μM); 50 mM ammonium acetate pH 7; monomers to 12-mer
[3] = molecular target: Redβ single strand annealing protein from bacteriophage λ (bacteriophage λ) (UniProt P03698); assay: as above; remark: listed apart in the source
[4] = molecular target: Redβ single strand annealing protein from bacteriophage λ (bacteriophage λ) (UniProt P03698); assay: SEC-MALS; Redβ with dT38 ssDNA (6 nt/monomer, 22°C, 30 min); Superose 6 increase, PBS; loaded at 34 μM; n assumes one copy of dT38
[5] = molecular target: Redβ single strand annealing protein from bacteriophage λ (bacteriophage λ) (UniProt P03698); assay: as above; remark: listed apart in the source
[6] = molecular target: Redβ single strand annealing protein from bacteriophage λ (bacteriophage λ) (UniProt P03698); assay: SEC-MALS; Redβ with 83- ssDNA (6 nt/monomer, 22°C, 30 min); Superose 6 increase, PBS; loaded at 34 μM; n assumes one copy of the 83-mer
[7] = molecular target: Redβ single strand annealing protein from bacteriophage λ (bacteriophage λ) (UniProt P03698); assay: native MS; 1 μM Redβ with two complementary strands added sequentially (83-:83+ or 83-:87+), annealed duplex; 50 mM ammonium acetate pH 7
[8] = molecular target: Redβ single strand annealing protein from bacteriophage λ (bacteriophage λ) (UniProt P03698); assay: as above; remark: listed apart in the source
[9] = molecular target: Redβ single strand annealing protein from bacteriophage λ (bacteriophage λ) (UniProt P03698); assay: SEC-MALS; Redβ with 83- then 83+ added sequentially (annealed duplex); Superose 6 increase, PBS; loaded at 34 μM; n assumes one copy of 83-:83+
[10] = molecular target: Redβ single strand annealing protein from bacteriophage λ (bacteriophage λ) (UniProt P03698); assay: SEC-MALS; Redβ with dT38 then dA38 added sequentially (annealed duplex, 4 nt/monomer each); Superose 6 increase, PBS; loaded at 34 μM; n assumes one copy of dT38:dA38
[11] = molecular target: Redβ single strand annealing protein from bacteriophage λ (bacteriophage λ) (UniProt P03698); assay: native MS; Redβ (0.1 to 30 μM) with two complementary 38-mers added sequentially (dT38:dA38; at 1 μM also 38NC1+:38NC1- and 38NC3+:40NC3-), annealed duplex; 50 mM ammonium acetate pH 7
[12] = molecular target: Redβ single strand annealing protein from bacteriophage λ (bacteriophage λ) (UniProt P03698); assay: as above; remark: listed apart in the source
[13] = molecular target: T1, Redβ single strand annealing protein (bacteriophage λ, UniProt P03698); assay: EMSA; PBS, ssDNA alone; EMSA: 10 uM Redβ, 50 uM nt DNA, 37 C, in PBS, or 20 mM Tris-HCl pH 7.5/10 mM NaCl/10 mM MgCl2, or 50 mM ammonium acetate pH 7.0; SEC-MALS: PBS, complexes formed; details: protein: recombinant, tags: N-terminal GSH left after thrombin removal of 6xHis, chain copies: 11
T1 sequence: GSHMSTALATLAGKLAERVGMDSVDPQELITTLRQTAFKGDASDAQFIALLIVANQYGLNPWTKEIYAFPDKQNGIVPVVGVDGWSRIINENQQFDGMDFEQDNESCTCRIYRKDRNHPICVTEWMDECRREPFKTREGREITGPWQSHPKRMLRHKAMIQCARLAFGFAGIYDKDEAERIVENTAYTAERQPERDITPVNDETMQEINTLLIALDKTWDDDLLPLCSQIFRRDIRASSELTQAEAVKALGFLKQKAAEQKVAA

[14] = molecular target: T1, Redβ single strand annealing protein; assay: native MS; 1 uM Redβ and higher; 8-13 subunits; EMSA: 10 uM Redβ, 50 uM nt DNA, 37 C, in PBS, or 20 mM Tris-HCl pH 7.5/10 mM NaCl/10 mM MgCl2, or 50 mM ammonium acetate pH 7.0; SEC-MALS: PBS, complexes formed; details: protein: recombinant; tags: N-terminal GSH left after thrombin removal of 6xHis; chain copies: 11
[15] = molecular target: T1, Redβ single strand annealing protein; assay: native MS; 1 uM Redβ; 5-15 subunits, 1 or 2 DNA; EMSA: 10 uM Redβ, 50 uM nt DNA, 37 C, in PBS, or 20 mM Tris-HCl pH 7.5/10 mM NaCl/10 mM MgCl2, or 50 mM ammonium acetate pH 7.0; SEC-MALS: PBS, complexes formed; details: protein: recombinant; tags: N-terminal GSH left after thrombin removal of 6xHis; chain copies: 11
[16] = molecular target: T1, Redβ single strand annealing protein; assay: native MS; strands added sequentially, 1 uM Redβ; 11 subunits; EMSA: 10 uM Redβ, 50 uM nt DNA, 37 C, in PBS, or 20 mM Tris-HCl pH 7.5/10 mM NaCl/10 mM MgCl2, or 50 mM ammonium acetate pH 7.0; SEC-MALS: PBS, complexes formed; details: protein: recombinant, tags: N-terminal GSH left after thrombin removal of 6xHis, chain copies: 11
[17] = molecular target: T1, Redβ single strand annealing protein; assay: EMSA; added first, then noncomplementary Cy5 50mer; unusually high affinity; EMSA: 10 uM Redβ, 50 uM nt DNA, 37 C, in PBS, or 20 mM Tris-HCl pH 7.5/10 mM NaCl/10 mM MgCl2, or 50 mM ammonium acetate pH 7.0; SEC-MALS: PBS, complexes formed; details: protein: recombinant; tags: N-terminal GSH left after thrombin removal of 6xHis; chain copies: 11; label: 5'-Cy3
[18] = molecular target: T1, Redβ single strand annealing protein; assay: EMSA; strands added sequentially, PBS; EMSA: 10 uM Redβ, 50 uM nt DNA, 37 C, in PBS, or 20 mM Tris-HCl pH 7.5/10 mM NaCl/10 mM MgCl2, or 50 mM ammonium acetate pH 7.0; SEC-MALS: PBS, complexes formed; details: protein: recombinant; tags: N-terminal GSH left after thrombin removal of 6xHis; chain copies: 11; label: 5'-Cy5, 5'-Cy3; blunt
[19] = molecular target: T1, Redβ single strand annealing protein; assay: SEC-MALS; PBS; 427 kDa, n=14.0; EMSA: 10 uM Redβ, 50 uM nt DNA, 37 C, in PBS, or 20 mM Tris-HCl pH 7.5/10 mM NaCl/10 mM MgCl2, or 50 mM ammonium acetate pH 7.0; SEC-MALS: PBS, complexes formed; details: protein: recombinant; tags: N-terminal GSH left after thrombin removal of 6xHis; chain copies: 11

## Redβ single strand annealing protein from bacteriophage λ (from UniProt P03698 1-261)
[1]
  stoichiometry N: 7.7 subunits

## Redβ single strand annealing protein from bacteriophage λ (from UniProt P03698 1-261) (natural protein)
[2]
  stoichiometry N: 12 subunits
[3]
  midpoint of the transition from monomer to 12-mer: 1 µM
  stoichiometry N: 1 to 14 subunits
[4]
  stoichiometry N: 14 subunits
[5]
  stoichiometry N: 14.1 subunits
[6]
  stoichiometry N: 21.1 subunits
[7]
  stoichiometry N: 22 subunits
[8]
  stoichiometry N: 21 subunits and 23 subunits
[9]
  stoichiometry N: 18.2 subunits
[10]
  stoichiometry N: 11.3 subunits
[1]
  stoichiometry N: 8.6 subunits and 9.1 subunits
[11]
  stoichiometry N: 11 subunits
[12]
  stoichiometry N: 9 subunits and 10 subunits

B1: Cy5 28mer (ssDNA)
DNA: AAAATCGAGCTATGCAGGGCGATTCTGC
[13]; label: 5'-Cy5
  binding result: no binding

B2: Cy5 20mer (ssDNA)
DNA: AAAATCGAGCTATGCAGGGC
[13]; label: 5'-Cy5
  binding result: no binding

B3: Cy3 20mer (ssDNA)
DNA: GCCCTGCATAGCTCGATTTT
[13]; label: 5'-Cy3
  binding result: no binding

B4: dA38 (ssDNA)
DNA: AAAAAAAAAAAAAAAAAAAAAAAAAAAAAAAAAAAAAA
[14]
  binding result: binds

B5: Cy3 16mer (ssDNA)
DNA: TGCATAGCTCGATTTT
[13]; label: 5'-Cy3
  binding result: no binding

B6: 38NC3+ (ssDNA)
DNA: GACGCACAATGACAGATAACACAATGGCGAGATAACGC
[15]
  binding result: binds

B7: 38NC3+:40NC3- (dsDNA)
DNA 1: GACGCACAATGACAGATAACACAATGGCGAGATAACGC
DNA 2: GCGTTATCTCGCCATTGTGTTATCTGTCATTGTGCGTCGC
[16]; 3' overhang 2 nt on strand 2
  binding result: binds

B8: Cy3 NC 50mer (ssDNA)
DNA: GAGTGATAGGCATATGTGCTACGAGTATCGAAGGAACGGTCACTACGCAA
[17]
  binding result: binds

B9: Cy5 16mer (ssDNA)
DNA: AAAATCGAGCTATGCA
[13]; label: 5'-Cy5
  binding result: no binding

B10: 38NC1- (ssDNA)
DNA: TCGGATCTCGTTGCATCTAGCGTCCGTTTACTGTGTCT
[15]
  binding result: binds

B11: 20mer annealed duplex (dsDNA)
DNA 1: AAAATCGAGCTATGCAGGGC
DNA 2: GCCCTGCATAGCTCGATTTT
[18]
  binding result: binds

B12: Cy3 24mer (ssDNA)
DNA: AATCGCCCTGCATAGCTCGATTTT
[13]; label: 5'-Cy3
  binding result: no binding

B13: 38NC1+ (ssDNA)
DNA: AGACACAGTAAACGGACGCTAGATGCAACGAGATCCGA
[15]
  binding result: binds

B14: 38NC1+:38NC1- (dsDNA)
DNA 1: AGACACAGTAAACGGACGCTAGATGCAACGAGATCCGA
DNA 2: TCGGATCTCGTTGCATCTAGCGTCCGTTTACTGTGTCT
[16]; blunt
  binding result: binds

B15: 28mer annealed duplex (dsDNA)
DNA 1: AAAATCGAGCTATGCAGGGCGATTCTGC
DNA 2: GCAGAATCGCCCTGCATAGCTCGATTTT
[18]
  binding result: binds

B16: 40NC3- (ssDNA)
DNA: GCGTTATCTCGCCATTGTGTTATCTGTCATTGTGCGTCGC
[15]
  binding result: binds

B17: Cy5 24mer (ssDNA)
DNA: AAAATCGAGCTATGCAGGGCGATT
[13]; label: 5'-Cy5
  binding result: no binding

B18: Cy3 28mer (ssDNA)
DNA: GCAGAATCGCCCTGCATAGCTCGATTTT
[13]; label: 5'-Cy3
  binding result: no binding

B19: dT38 (ssDNA)
DNA: TTTTTTTTTTTTTTTTTTTTTTTTTTTTTTTTTTTTTT
[19]
  binding result: binds

B20: 24mer annealed duplex (dsDNA)
DNA 1: AAAATCGAGCTATGCAGGGCGATT
DNA 2: AATCGCCCTGCATAGCTCGATTTT
[18]
  binding result: binds
